Reference: the supplement of paper PMC9170038

System: MS2 coat protein
Assay: apparent KD of MS2 coat protein; designed switch direction (-1 OFF switch, 1 ON switch): 1; higher = weaker reporter binding
Procedure, shortened: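 Apparent KD, taken as the median over clusters for each design, was obtained by curve-fitting normalised cluster fluorescence. Designed RNA switches had been transcribed on Illumina chips by stalled E. coli RNA polymerase and titrated with SNAP-549-labelled MS2 coat protein, doubling from 0.7 or 1.5 nM to 3 µM.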

[1] = input ligand: microRNA oligo, concentration not stated
[2] = Eterna round: R95, input ligand: microRNA oligo, concentration not stated
[3] = Eterna round: R95, input ligand: FMN 200 uM
[4] = Eterna round: R95, input ligand: none

Sequence | apparent KD of MS2 coat protein [1] [nM] | apparent KD of MS2 coat protein [2] [nM] | apparent KD of MS2 coat protein (input ligand: FMN 200 uM) [nM] | apparent KD of MS2 coat protein (input ligand: none) [nM] | apparent KD of MS2 coat protein [3] [nM] | apparent KD of MS2 coat protein [4] [nM]
GCCAUCGUAUGAGGAUAUGGCACCGAAACGGUGCCAGAAGGCAUGUCAAUUGACAUGAGGAUCACCCAUGUAUUAUCGAUGGCA [Mat - Same State NG 1 - JL mod - D89] (Eterna round: R96, puzzle: Same State NG 1) | 454 |  |  |  |  | 
CAGCACUAUCGAGAGGAUAUGCGGUGAUGGACAUGAGGAUCACCCAUGUUAGCGAUGGCAUCACGGCAGAAGGCUCUGCUGCUGC [Soteed Omei mod 38] (puzzle: Same State 2) |  | 13.2 |  |  |  | 
UAUUAGAUCCGAGGAUAUCCUUUUUUCUUACAUGAGGAUCACCCAUGUAAAGGGAUUGAGUUGUAGGAGAAGGCGGAUUUAGUU [JR_SSNG2_Sub058] (Eterna round: R96, puzzle: Same State NG 2) | 24.1 |  |  |  |  | 
UUGCUCGUGUGAGGAUAUGCAGCCGUUUCGGCUGCAGAAGGUACUAUAAUACAUGAGGAUCACCCAUGUCUCUGUUGUUUUGUG [salish99_SSNG1_r04_929] (Eterna round: R96, puzzle: Same State NG 1) | 20.8 |  | 26.9 | 25.4 |  | 
GUUGAGAAAUGAGGAUAUGCAUGGAAGACACAUGAGGAUCACCCAUGUGGGAGGGAAACCAGGAGGUAGAAGGCAUUGGGAAAC [AK SSNG2-V2-24] (Eterna round: R96, puzzle: Same State NG 2) | 35.5 |  | 35.7 | 55.1 |  | 
UCUUGGUUUUUGCUCGUUUUUUGUGUUGAACAUGAGGAUCACCCAUGUAUUAUACGGUCCGGUUUAGUAGUGGUCCA [JMF 78] (puzzle: Sensor for hsa-mir-208a) |  | 83 |  |  | 86.1 | 113
AGUCCAGCCUGAGCUGGACAAAAGUAUGUACAUGAGGAUCACCCAUGUCAUGUACAAGCUUUUUGCUCGUUUUAAUA [Zipper 49 - 17] (puzzle: Sensor for hsa-mir-208a) |  | 33.8 |  |  | 424 | 517
GCCAUCGUGUGAGGAUAUGGCACCGAAACGGUGCCAGAAGGCAUGUCAAUUGACAUGAGGAUCACCCAUGUAUUAGCGAUGGCA [Mat - Same State NG 1 - JL mod - D86] (Eterna round: R96, puzzle: Same State NG 1) | 994 |  | 181 | 1360 |  | 
AUUUAACAAGCUUUUUGCUCGUCUUAUAAACAUGAGGAUCACCCAUGUAAUAGCGUGAGAGUAAUUUUUUAAAUAAU [JMF 96] (puzzle: Sensor for hsa-mir-208a) |  | 34.3 |  |  | 20.3 | 17
UGUUGUAUUACAGGAUAUCUAUUAGUUUGAUUUAGAGAAGGGUAUUCACAUGAGGAUCACCCAUGUAUAUACGAGGAAGUUGUG [JMF's solution 94] (Eterna round: R96, puzzle: Same State NG 1) | 41.4 |  |  |  |  | 
AAAAUACAUGAGGAUCACCCAUGUGAAAAUAUGGGAGGAUAUACCGAAAAAAAAAAAAAGGUAGAAGGCCCAAAAA [SS! 1 MT 5] (Eterna round: R96, puzzle: Same State 1) | 31 |  | 39.5 | 34.6 |  | 
AGAUCAUGACGAGGAUAUGGUACAUGAGGAUCACCCAUGUAUGUACCACGACGCGUACGUCGAAUCCAGAAGGCGUCAUGGUCA [Mat - Same State NG 2 - JL mod - D17] (Eterna round: R96, puzzle: Same State NG 2) | 51.3 |  | 17.8 | 119 |  | 
GGAGCCUGCACUGAGGAUAUUCAUAGUGUAACAUGAGGAUCACCCAUGUGUCGCCGUAGCGACUGGGAGAAGGCAGUGCGGCUCG [JL-ss2-3.06 ViennaUCT mod] (puzzle: Same State 2) |  | 180 |  |  | 38.4 | 325
AAAACACAUGAGGAUCACCCAUGUACCAGGUACAUAGGAUAUCCAGGCGCCAGAUGGCGCGGAGAAGGAUGGAAAA [Xeveoned] (puzzle: Same State 1) |  | 162 |  |  | 90.8 | 251
UCUUGGUUUUUGCUCGUUUUUUGUGUUGAACAUGAGGAUCACCCAUGUAUUGUACGGUCCGGUUUGAUAGUGGUCCG [JMF 15] (puzzle: Sensor for hsa-mir-208a) |  | 16.2 |  |  | 26.3 | 31.3
GGAAUAUGAUGUUACAUGAGGAUCACCCAUGUAGUGACAACUAAGGAUAUCUGAAAAGAAGGAGAGGAGAAGGUAGGAUCAUAA [AK SSNG3-V2-14.1] (Eterna round: R96, puzzle: Same State NG 3) | 23.1 |  | 25.7 | 36 |  | 
GUCCAAAACACAGGAUAUCCCGGUCAAAAUCCGGGAGAAGGGUGGCCACAUGAGGAUCACCCAUGUGACGUGCGAGAGGCACGA [Diessorire] (Eterna round: R96, puzzle: Same State NG 1) | 318 |  | 118 | 540 |  | 
